Bridge positions count the residues as written; N and C are the ends. Square brackets hold non-standard residues; d marks the D form. Ends that are not written are not given here.
Target: hMuSK-Fc (chimeric protein of the secretory human MuSK extracellular portion and human IgG1 Fc) (human) (UniProt O15146)
Experiment: SPR (Biacore T200), Fc-tagged human MuSK on Protein G/A chip, 1:1 fit

Chain of hMuSK-Fc (chimeric protein of the secretory human MuSK extracellular portion and human IgG1 Fc) (human) (O15146 24-493, change not shown, form in doubt): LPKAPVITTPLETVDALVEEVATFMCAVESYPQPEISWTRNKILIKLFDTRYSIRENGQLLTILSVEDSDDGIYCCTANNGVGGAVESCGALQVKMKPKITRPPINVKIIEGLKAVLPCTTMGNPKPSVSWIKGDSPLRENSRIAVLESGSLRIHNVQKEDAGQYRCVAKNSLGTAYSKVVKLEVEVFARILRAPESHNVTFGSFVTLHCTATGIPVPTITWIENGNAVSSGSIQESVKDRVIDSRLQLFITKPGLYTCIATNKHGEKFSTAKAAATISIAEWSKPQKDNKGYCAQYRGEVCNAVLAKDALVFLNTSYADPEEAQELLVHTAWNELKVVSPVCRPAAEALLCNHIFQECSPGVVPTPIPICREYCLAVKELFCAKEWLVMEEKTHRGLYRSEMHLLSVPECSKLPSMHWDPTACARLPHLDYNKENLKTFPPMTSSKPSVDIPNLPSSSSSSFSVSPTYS

B1: Homodimer of MuSK7 with an introduced palmitoyl group (MuSK7-pal) (peptide)
peptide: {CH2CO}-[dY]PSYHTNVVASLKRC
modifications: thioether N-15; also: homodimer: two peptides condensed via C-terminal Cys carboxyl with linking unit bearing palmitic acid
B1 gave a Kd of 0.9 nM.

— EP4722228A1, “NEW COMPOUND TARGETING MUSK AND USE THEREOF” (The University of Tokyo, priority 2023, dated 2024)
